The assay concerns the target nucleosome core particle (recombinant Xenopus laevis histone octamer on 147 bp 601 DNA) (Xenopus laevis). Briefly: native gel or EMSA; as the gel shift with nucleosome cores (50 nM), at higher concentrations of HMGN1 (methods: 2-800 nM); ESI Fig. S9.3. (Mobility shift assays separate free from complexed probe on a gel.)

With “full-length recombinant HMGN1 (HMGN1_1–99, unmodified) (natural protein)”, the stoichiometry N (HMGN1 molecules per nucleosome) was greater than 2.

For the origin of these results see article PMC8341956.
